Experiments:
Settings in all cases: PtdIns5P co-substrate, 10 mM MgCl2, pH 7.4, 30 °C, ATP 0–150 μM
[1] = substrate: Nc1ncnc2c1ncn2[C@@H]1O[C@H](COP(=O)(O)OP(=O)(O)OP(=O)(O)O)[C@@H](O)[C@H]1O; experiment: radiometric lipid kinase assay, TLC; type: biochemical, Homo sapiens
[2] = substrate: Nc1ncnc2c1ncn2[C@@H]1O[C@H](COP(=O)(O)OP(=O)(O)OP(=O)(O)O)[C@@H](O)[C@H]1O; experiment: radiometric lipid kinase assay, TLC; type: biochemical, Homo sapiens; remark: listed apart in the source
From the text: radiometric lipid kinase assay, TLC on PI5P4Kβ

[3] = substrate: Nc1ncnc2c1ncn2[C@@H]1O[C@H](COP(=O)(O)OP(=O)(O)OP(=O)(O)O)[C@@H](O)[C@H]1O; experiment: purified protein

B1: PI5P4Kα (Homo sapiens) (protein)
chain: MATPGNLGSSVLASKTKTKKKHFVAQKVKLFRASDPLLSVLMWGVNHSINELSHVQIPVMLMPDDFKAYSKIKVDNHLFNKENMPSHFKFKEYCPMVFRNLRERFGIDDQDFQNSLTRSAPLPNDSQARSGARFHTSYDKRYIIKTITSEDVAEMHNILKKYHQYIVECHGITLLPQFLGMYRLNVDGVEIYVIVTRNVFSHRLSVYRKYDLKGSTVAREASDKEKAKELPTLKDNDFINEGQKIYIDDNNKKVFLEKLKKDVEFLAQLKLMDYSLLVGIHDVERAEQEEVECEENDGEEEGESDGTHPVGTPPDSPGNTLNSSPPLAPGEFDPNIDVYGIKCHENSPRKEVYFMAIIDILTHYDAKKKAAHAAKTVKHGAGAEISTVNPEQYSKRFLDFIGHILT
notes: full-length cDNA in pGEX6P, E. coli BL21(DE3), GST fusion or GST cleaved by PreScission; His6-tagged version used as standard for kcat conversion; homodimer
[1]
  Km: 3.94 µM
  kcat: 0.0105 s⁻¹

B2: PI5P4Kβ (Homo sapiens) (protein)
chain: MSSNCTSTTAVAVAPLSASKTKTKKKHFVCQKVKLFRASEPILSVLMWGVNHTINELSNVPVPVMLMPDDFKAYSKIKVDNHLFNKENLPSRFKFKEYCPMVFRNLRERFGIDDQDYQNSVTRSAPINSDSQGRCGTRFLTTYDRRFVIKTVSSEDVAEMHNILKKYHQFIVECHGNTLLPQFLGMYRLTVDGVETYMVVTRNVFSHRLTVHRKYDLKGSTVAREASDKEKAKDLPTFKDNDFLNEGQKLHVGEESKKNFLEKLKRDVEFLAQLKIMDYSLLVGIHDVDRAEQEEMEVEERAEDEECENDGVGGNLLCSYGTPPDSPGNLLSFPRFFGPGEFDPSVDVYAMKSHESSPKKEVYFMAIIDILTPYDTKKKAAHAAKTVKHGAGAEISTVNPEQYSKRFNEFMSNILT
notes: full-length cDNA in pGEX6P, E. coli BL21(DE3), GST fusion or GST cleaved by PreScission; mutant PI5P4Kβ+ His-tagged; homodimer
[2]
  Km: 67.05 µM
  kcat: 9.55e-05 s⁻¹

B3: PI5P4Kγ (Homo sapiens) (protein)
chain: ASSSVPPATVSAATAGPGPGFGFASKTKKKHFVQQKVKVFRAADPLVGVFLWGVAHSINELSQVPPPVMLLPDDFKASSKIKVNNHLFHRENLPSHFKFKEYCPQVFRNLRDRFGIDDQDYLVSLTRNPPSESEGSDGRFLISYDRTLVIKEVSSEDIADMHSNLSNYHQYIVKCHGNTLLPQFLGMYRVSVDNEDSYMLVMRNMFSHRLPVHRKYDLKGSLVSREASDKEKVKELPTLKDMDFLNKNQKVYIGEEEKKIFLEKLKRDVEFLVQLKIMDYSLLLGIHDIIRGSEPEEEAPVREDESEVDGDCSLTGPPALVGSYGTSPEGIGGYIHSHRPLGPGEFESFIDVYAIRSAEGAPQKEVYFMGLIDILTQYDAKKKAAHAAKTVKHGAGAEISTVHPEQYAKRFLDFITNIFA
[3]
  Km: 94.18 µM
  kcat: 5.72e-06 s⁻¹

From PMC3749867, “Evolutionarily conserved structural changes in phosphatidylinositol 5-phosphate 4-kinase (PI5P4K) isoforms are responsible for differences in enzyme activity and localization” (Biochemical Journal, 2013)
